Measurements as given in patent US20230340090A1 (published 2023).

T1: TDP-215 peptide GDVMDVFI (human)
T1 construct: same ELISA method as for the biotinylated 15-mers
T1 peptide: GDVMDVFI

B1: ACI-7062-404D6-Ab2 (antibody, IgG3, V domains shown)
VH: QVTLKESGPGILQPSQTLSLTCSFSGFSLSTYGIGVGWIRQPSGKGLEWLAHIWWNDYKYYNTALKSRLTISKDTSNNRVFLKIASVDTADTATYYCARVYGNLYYFDYWGQGTTLTVSS
VL: DVLMTQTPLSLPVSLGDQASISCRSSQSIVHGSGNTYLEWYLQKPGQSPKLLIYKVSNRFSGVPDRFSGSGSGTDFTLRISRVEAEDLGVYYCFQGSHVPTFGAGTKLELKR
notes: Mouse hybridoma antibody, IgG3, kappa; also called 404D6E11; clone 4
B2: ACI-7062-415H10-Ab2 (antibody, IgG3, V domains shown)
VH: DVQLVESGGGLVQPGGSRKLSCAASGFTFSSFGMHWVRQAPEKGLEWVAYISSGSSNIYYTDTVKGRFTISRDNPKNTLFLQMTSLRSEDTAIYYCARSGTTVPFDYWGQGTTLTVSS
VL: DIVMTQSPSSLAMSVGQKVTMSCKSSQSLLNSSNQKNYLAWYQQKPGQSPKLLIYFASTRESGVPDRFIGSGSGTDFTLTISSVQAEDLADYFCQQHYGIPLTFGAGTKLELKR
notes: Mouse hybridoma antibody, IgG3, kappa; also called 415H10B7; clone 17

Target: T1, TDP-215 peptide GDVMDVFI
Experiment: indirect ELISA on 8-mer peptide library
Protocol: Serum-free supernatants were harvested from stable hybridomas. The supernatants containing antibodies of interest were then screened by an indirect ELISA assay to determine epitopes. Epitopes were mapped using a library of TDP-43 15-mer peptides. Briefly, 96-well streptavidin-coated 96-well ELISA plates were incubated with 5 μg/mL of biotinylated 15-mer peptides spanning the amino acids (aa) 199-285 of human TDP-43 with 9 as offset and 6 as overlap. Plates were washed thoroughly with 0.05% Tween-20/PBS and then blocked with 1% bovine serum albumin (BSA) in 0.05% Tween-20/PBS for 1 hour at 37° C. The antibody contained in the hybridoma supernatant was then added at the indicated dilutions, and incubated for 2 hours at 37° C. after which the plates were washed as described previously. An AP-conjugated anti-mouse IgG secondary antibody (Jackson ImmunoResearch Laboratories, United Kingdom) was added at 1/1000 dilution in 0.05% Tween-20/PBS for 1 hour at 37° C. After the final wash, plates were incubated with pNPP (Sigma-Aldrich, Switzerland) an AP substrate solution, and read at 405 nm using an ELISA plate reader (Tecan).
Furthermore, antibodies were tested using an indirect ELISA on a peptide library of 8-mer peptides with 7 an overlap covering the sequence of human TDP-43 from aa 210 to aa 231, using the same ELISA method as describe previously in this section.

| Binder | binding result |
| --- | --- |
| B1 | binds |
| B2 | binds |
